From paper doi:10.1101/807917

Target: E. coli 30S initiation complex (30S IC) lacking IF2 and IF3 (E. coli) (UniProt P69222)
Test: FRET or BRET

UniProt P69222, sequence (P69222 whole entry, looked up, one chain of several): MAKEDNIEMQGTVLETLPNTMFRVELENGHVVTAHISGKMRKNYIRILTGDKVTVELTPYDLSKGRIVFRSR

Substance: Cy5-labeled Initiation Factor 2 (IF2), E. coli (from UniProt P0A705 1-890) (natural protein)
- fold change of Kd, IF2 bound to ppGpp relative to IF2 bound to GTP: 10 fold
